B1: library; numbered along this chain (parent)
chain: MAAAAAAAAEQQSSNGPVKKSMREKAVERRSVNKEHNSNFKAGYIPIDEDRLHKTGLRGRKGNLAICVIILLFILAVINLIITLVIWAVIRIGPNGCDSMEFHESGLLRFKQVSDMGVIHPLYKSTVGGRRNENLVITGNNQPIVFQQGTTKLSVENNKTSITSDIGMQFFDPRTQNILFSTDYETHEFHLPSGVKSLNVQKASTERITSNATSDLNIKVDGRAIVRGNEGVFIMGKTIEFHMGGNMELKAENSIILNGSVMVSTTRLPSSSSGDQLGSGDWVRYKLCMCADGTLFKVQVTSQNMGCQISDNPCGNTH

Variants of: B1
Test: SGCB cell-surface expression functional score (HA stain, bin4 vs bin1, normalised to synonymous) (log10 ratio); higher = more cell-surface SGCB (functional)
Procedure, shortened: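 HEK293 cells stably expressing alpha-, gamma- and delta-sarcoglycan received codon-saturation libraries of HA-tagged, YFP-fused human beta-sarcoglycan by lentiviral transduction at MOI <0.1, performed in duplicate. Cells positive for YFP were sorted after 72 hours and cultured for 5–7 days, then stained on ice with Alexa Fluor 647 anti-HA and fixed. Fixed cells were sorted into four 5% intensity bins and amplicon-sequenced, and the log ratio of highest-bin to lowest-bin variant frequency, as a median over codons and transductions, gives the functional score. Per section, synonymous variants were scaled to mean 0, SD 0.5.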

Variant | SGCB cell-surface expression functional score (log10)
N258E | 0
N258C | 0.74
N258K | 0.55
N258Q | 0.63
N258H | 0.33
N258P | -1.25
N258Y | 0.03
N258V | 0.3
N258S | 0.66
N258R | 0.61
N258G | 0.43
N258M | 0.62
N258F | -0.09
N258D | 0.39
N258W | 0
N258L | 0.61
N258T | -0.05
N258I | -0.1
N258A | 0.1
T266W | 0.59
T266S | 0.4
T266A | 0.63
T266L | 0.47
T266H | 0.55

Variant | SGCB cell-surface expression functional score (log10)
T266P | 0.54
T266E | 1.22
T266Q | 1.04
T266C | 1.12
T266G | 1.23
T266M | 1.39
T266N | 0.54
T266K | 1.15
T266V | 0.35
T266R | 0.23
T266D | 0.4
T266F | 0.7
T266I | 0.26
T266Y | 0.19
G259T | 0.55
G259M | -1.05
G259L | -0.06
G259P | -0.37
G259H | 0.33
G259V | 0.07
G259E | -1.29
G259Y | -1.22
G259I | 0.63
G259F | -0.46

Variant | SGCB cell-surface expression functional score (log10)
G259C | -0.44
G259D | -1.69
G259S | 0.28
G259R | -0.34
G259K | -1.06
G259Q | 0.7
G259N | -0.51
G259A | 0.9
G259W | -1.53
T265A | 0
T265H | 0.75
T265E | 0.2
T265F | 0.68
T265Q | 0.21
T265D | 0
T265L | 0.73
T265P | 0.25
T265G | 0.47
T265R | 0.4
T265M | 1.41
T265W | 0.38
T265K | 0.32
T265S | 0.4
T265Y | 0.55

Variant | SGCB cell-surface expression functional score (log10)
T265V | 0.52
T265C | -0.3
T265N | 0.79
T265I | 0.58
E252T | 0.88
E252H | 1.12
E252R | 0.34
E252G | 0.39
E252M | 0.8
E252P | 0.32
E252W | 0.117
E252L | 0.88
E252I | 1.01
E252Q | 0.64
E252V | 0.88
E252K | 0.57
E252S | 0.51
E252Y | 1.05
E252N | 1.08
N253Y | 0.45
N253F | 0.83
N253T | 0.39
N253I | 0
N253H | 0.8

Variant | SGCB cell-surface expression functional score (log10)
N253G | 0.43
N253A | 0.49
N253L | 0.96
N253M | -0.117
N253W | 0.29
N253S | 0.59
N253R | 0.29
N253V | 0.9
N253D | 0.58
N253K | 0.46
N253C | 0.55
N253Q | 1.07
N253E | 0.76
N253P | -0.52
S264C | -0.1
S264R | 0.03
S264A | 0.51
S264P | 0.06
S264Q | 0.39
S264G | 0.23
S264N | -0.3
S264M | 0.69
S264I | 0.34
S264K | 0.5

Variant | SGCB cell-surface expression functional score (log10)
S264Y | 0.34
S264F | 0.58
S264E | 0.53
S264L | 0.68
S264W | -0.2
S264D | 0.96
S264V | 0.6
S264T | 0.31
S264H | 0.22
M262G | 0.53
M262W | 0.08
M262A | 0.37
M262C | 0.37
M262Y | 0.79
M262Q | 0.93
M262N | 0
M262R | 0.7
M262F | 0.95
M262K | 0.79
M262L | 0.57
M262T | 0.19
M262D | -0.81
M262S | 0.7
M262H | 1.32

Variant | SGCB cell-surface expression functional score (log10)
M262V | 0.78
M262I | -0.11
M262P | -0.34
M262E | 0.65
S260W | 0.61
S260E | -0.09
S260R | 0.87
S260L | -0.22
S260I | -0.71
S260G | 0.77
S260D | -0.04
S260Q | -0.24
S260A | 0.52
S260H | 0.83
S260T | 0.41
S260C | 0.5
S260K | -0.81
S260P | 0.71
S260N | 0.25
S260V | 0.01
S260M | 0.98
S260Y | -0.87
S260F | 0.4
L257T | -0.91

Variant | SGCB cell-surface expression functional score (log10)
L257R | -1.52
L257Y | 0.3
L257A | -0.23
L257F | 0.54
L257N | -0.61
L257C | -0.27
L257K | -0.27
L257D | -0.5
L257H | -0.81
L257I | 0.12
L257Q | -1.3
L257S | -1.19
L257P | -0.89
L257M | 0
L257E | -0.43
L257V | 0.45
L257W | 0.82
L257G | -0.1
I255T | -0.76
I255D | -0.53
I255W | -1.77
I255E | -0.85
I255Q | -0.37
I255P | -0.82

Variant | SGCB cell-surface expression functional score (log10)
I255L | 0.57
I255G | -1.03
I255S | -0.08
I255R | -0.91
I255K | -0.13
I255C | 0.39
I255F | 0.37
I255M | 0.52
I255Y | -1.08
I255A | 0.2
I255H | -1.4
I255V | 0.07
I255N | -1.5
P269A | -0.23
P269I | 0.5
P269H | 0.32
P269D | -0.09
P269Q | 0.32
P269N | 0.54
P269F | 0.8
P269K | 0.01
P269C | 0.49
P269R | 0.75
P269M | -0.48

Variant | SGCB cell-surface expression functional score (log10)
P269E | 0
P269G | 0.44
P269L | 0.23
P269S | 0.18
L268P | -0.02
L268M | 0.61
L268T | -0.02
L268V | 0.2
L268I | 0.38
L268D | 0.78
L268E | -0.13
L268H | 0
L268Y | -0.02
L268C | -0.57
L268K | -1.12
L268N | 0
L268G | -0.22
L268S | 0.48
L268R | 0.02
L268Q | -0.01
L268W | 0.53
L268F | 0.46
L268A | 0.63
S254W | 0.38

Variant | SGCB cell-surface expression functional score (log10)
S254C | 0.55
S254A | 0.25
S254E | 1.37
S254Y | 0.7
S254T | 0.67
S254V | 0.02
S254Q | 0.92
S254L | 0.74
S254D | -0.152
S254R | 0.12
S254H | 0.41
S254K | 0.05
S254F | 0.96
S254P | -0.77
S254I | 0.12
S254N | 0.66
S254G | 0.08
S254M | 0.79
I256E | 0.36
I256P | -0.12
I256F | 0.01
I256H | 0.01
I256L | 0.37
I256R | 0.05

Variant | SGCB cell-surface expression functional score (log10)
I256D | 0.02
I256Q | -0.26
I256T | 0.37
I256N | 1.09
I256C | -0.43
I256G | 0.26
I256M | 0.29
I256Y | 0.42
I256A | -0.2
I256W | -0.179
I256S | 0.62
I256K | 0.15
I256V | 0.31
V263C | 1
V263P | -1.18
V263Y | 0.3
V263Q | -1.36
V263M | -1.03
V263K | -0.87
V263D | -0.53
V263T | 0.4
V263W | 0.52
V263G | -0.03
V263S | -0.39

Variant | SGCB cell-surface expression functional score (log10)
V263E | -0.52
V263R | -0.48
V263L | 0.09
V263N | 0.66
V263A | -0.4
V263H | 0.31
V263F | 0.35
V263I | 0.77
R267Y | 0.2
R267W | -0.83
R267F | 0.59
R267D | -0.54
R267K | 0.76
R267S | 0.28
R267C | 0.16
R267E | -0.053
R267G | 0.49
R267T | -0.49
R267A | 0.63
R267H | 0.05
R267V | 0.49
R267Q | -0.244
R267N | 0
R267I | -0.11

Variant | SGCB cell-surface expression functional score (log10)
R267P | -0.19
R267M | -0.73
R267L | -0.05
V261R | -0.69
V261Y | -1.15
V261W | 0.306
V261E | 0.05
V261T | 0.23
V261N | -0.63
V261L | 0.42
V261M | -0.12
V261F | -1.31
V261Q | -1.12
V261G | -0.18
V261S | -0.04
V261D | 0.41
V261K | -1.55
V261P | -0.15
V261C | 0.48
V261H | -1.2
V261A | -0.02
V261I | 0.29

Reference: the supplement of paper PMC10266784
